Here are results for two molecules from US20100022402A1, “Methods and Compositions for the In Vitro High-Throughput Detection of Protein/Protein Interactions” (priority 2004, published 2010).

Assay [1] concerns the target T1, λD-Base display phage (gpD fused to basic aptamer [Gly-Arg]4) (bacteriophage lambda), P03712.
T1 chain: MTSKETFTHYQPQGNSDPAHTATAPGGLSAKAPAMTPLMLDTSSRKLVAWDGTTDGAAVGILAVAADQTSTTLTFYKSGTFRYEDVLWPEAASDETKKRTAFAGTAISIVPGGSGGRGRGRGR
The assay can be described thus: apparent KD, calculated as the concentration of free peptide that results in an IC50 in the λD-Acid:λD-Base co-infection assay.

The target of assay [2] is T1, λD-Base display phage (gpD fused to …). As to the kind of experiment: competition: free peptide titrates λD-Acid:λD-Base co-infection (MOI 0.0025), loss of double resistant multilysogens.
In assay [3] the target is T2, λD-Acid display phage (gpD fused to acidic aptamer [Gly-Glu]4) (bacteriophage lambda), P03712.
T2 chain: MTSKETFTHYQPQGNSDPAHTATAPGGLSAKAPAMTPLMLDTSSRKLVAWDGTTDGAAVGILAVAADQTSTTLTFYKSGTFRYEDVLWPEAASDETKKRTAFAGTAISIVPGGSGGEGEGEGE
As to the kind of experiment: apparent KD, calculated as the concentration of free peptide that results in an IC50 in the λD-Acid:λD-Base co-infection assay.

Assay [4] concerns the target T2, λD-Acid display phage (gpD fused to …). As to the kind of experiment: competition: free peptide titrates λD-Acid:λD-Base co-infection (MOI 0.0025), loss of double resistant multilysogens.

Where no end group is shown, it is not given here.

In the case of GEGEGEGE (not fully specified) [Acidic Aptamer (free synthetic peptide [Gly-Glu]4)], in assay [1], the Kd is 10 nM. Also, the IC50 in assay [2] came to 10 nM.

Consider GRGRGRGR (not fully specified) [Basic Aptamer (free synthetic peptide [Gly-Arg]4)], for which the Kd in assay [3] is 10 nM. Also, the IC50 in assay [4] turned out to be 10 nM.
